# ± gives the uncertainty stated by the source.
# B1: Lysine-specific demethylase 2B, residues 656 to 722; numbered along this chain, Q8NHM5 (parent)
# chain: LPHTAVCLVCGEAGKEDTVEEEEGKFNLMLMECSICNEIIHPGCLKIKESEGVVNDELPNCWECPKC
# Variants of: B1
# Assay: abundance fitness (aPCA) (normalised: wild type 0, dead -1); higher = more abundant; growth selection in yeast, the domain comes from the species named
# Conditions: Homo sapiens
row,Variant,abundance fitness
1,LPHTAVCLVCGEAGKEDTVEEEEGKFQLMLMECSICNEIIHPGCLKIKESEGVVNDELPNCWECPKC [N27Q],-0.206 ± 0.13
2,LPHTAVCLVCGEAGKEDTVEEEEGKFMLMLMECSICNEIIHPGCLKIKESEGVVNDELPNCWECPKC [N27M],0.077 ± 0.13
3,LPHTAVCLVCGEAGKTDTVEEEEGKFNLMLMECSICNEIIHPGCLKIKESEGVVNDELPNCWECPKC [E16T],0.167 ± 0.16
4,LPHTAVCLVCGEAGKEDTVEEEEGKFNFMLMECSICNEIIHPGCLKIKESEGVVNDELPNCWECPKC [L28F],0.081 ± 0.1
5,LPHTAVCLVCGEAGKEDTVEEEEGKYNLMLMECSICNEIIHPGCLKIKESEGVVNDELPNCWECPKC [F26Y],-0.234 ± 0.15
6,LPHTAVCLVCNEAGKEDTVEEEEGKFNLMLMECSICNEIIHPGCLKIKESEGVVNDELPNCWECPKC [G11N],-0.382 ± 0.24
7,LPHTAVCLVCREAGKEDTVEEEEGKFNLMLMECSICNEIIHPGCLKIKESEGVVNDELPNCWECPKC [G11R],-0.051 ± 0.06
8,LPHTAVCLVCPEAGKEDTVEEEEGKFNLMLMECSICNEIIHPGCLKIKESEGVVNDELPNCWECPKC [G11P],-0.626 ± 0.15
9,LPHTAVCLVCGETGKEDTVEEEEGKFNLMLMECSICNEIIHPGCLKIKESEGVVNDELPNCWECPKC [A13T],-0.022 ± 0.13
10,LPHTAVCLVMGEAGKEDTVEEEEGKFNLMLMECSICNEIIHPGCLKIKESEGVVNDELPNCWECPKC [C10M],-0.613 ± 0.17
11,LPHTAVCLVCGEAGKEDTVEEEEGKFNLMLWECSICNEIIHPGCLKIKESEGVVNDELPNCWECPKC [M31W],-0.229 ± 0.089
12,LPHTAVCLVCGEAGKEDTVEEEEGKFNLMLSECSICNEIIHPGCLKIKESEGVVNDELPNCWECPKC [M31S],-0.446 ± 0.14
13,LPHTAVCLVCGEAGKEDTVEEEEGKFNLMLMECSICNEIIHPGCLKIKESEGVVNDRLPNCWECPKC [E57R],-0.055 ± 0.067
14,LPHTAVCLVCGEAGKEDTVEEEEGKFNLMLMECSICNEIIHPGCLKIKESEGVVNDLLPNCWECPKC [E57L],-0.042 ± 0.087
15,LPHTAVCLVCGEAGKEDTVEEEEGKFNLMLMECSICNEIIYPGCLKIKESEGVVNDELPNCWECPKC [H41Y],-0.912 ± 0.33
16,LPHTAVCLVCGEAGKEDTVEEEEGSFNLMLMECSICNEIIHPGCLKIKESEGVVNDELPNCWECPKC [K25S],-0.348 ± 0.14
17,LPHTAVCLVCGEAGKEDPVEEEEGKFNLMLMECSICNEIIHPGCLKIKESEGVVNDELPNCWECPKC [T18P],-0.268 ± 0.13
18,LPHTAVCLVCGEAGKEDTVEEEEGKFNLMLMECSICNEIIHPGCIKIKESEGVVNDELPNCWECPKC [L45I],-0.434 ± 0.41
19,LPHTAVCLVCGEAGFEDTVEEEEGKFNLMLMECSICNEIIHPGCLKIKESEGVVNDELPNCWECPKC [K15F],-0.368 ± 0.14
20,LPHTAVCLVCGEAGKEDTVEEEEGKFNLMLMECSICNEIIHPGCLKIKESEGVVNDELPNCWECPSC [K66S],-0.284 ± 0.098

row,Variant,abundance fitness
1,LPHTAVCLVCGEAGKEDTVEEEEGKFNLMLMECSITNEIIHPGCLKIKESEGVVNDELPNCWECPKC [C36T],-0.961 ± 0.26
2,LPHTAVCLVCGEAGKEDTVEEEEGKFNLMLMECSICNEIIHPGCLKIKESEGVVNDELPNCWMCPKC [E63M],-0.006 ± 0.1
3,LPHTAVCLVCGEAGKEDTVEEEEGKFNLMLMEKSICNEIIHPGCLKIKESEGVVNDELPNCWECPKC [C33K],-0.6 ± 0.17
4,LPHTAVCLVCGEAGKEDTVEEEEGKFNLMLMECSICNEIIHDGCLKIKESEGVVNDELPNCWECPKC [P42D],-0.644 ± 0.22
5,LPHTAVCLVCGEAGKEDTVEEEEGKFNLMLMECSICNEIIHPGCLKISESEGVVNDELPNCWECPKC [K48S],-0.155 ± 0.089
6,LPHTAVCLVCGEAGKEDTVEEEEGKFNLMLMECSICNEIIHPGCLRIKESEGVVNDELPNCWECPKC [K46R],0.016 ± 0.064
7,LPHIAVCLVCGEAGKEDTVEEEEGKFNLMLMECSICNEIIHPGCLKIKESEGVVNDELPNCWECPKC [T4I],-0.288 ± 0.46
8,LPHGAVCLVCGEAGKEDTVEEEEGKFNLMLMECSICNEIIHPGCLKIKESEGVVNDELPNCWECPKC [T4G],-0.623 ± 0.17
9,LPHTAVCLVCGEAGKEDTVEEEEGKFNLELMECSICNEIIHPGCLKIKESEGVVNDELPNCWECPKC [M29E],-0.362 ± 0.12
10,LPHTAVCLVCGEAGKEDTVEEEEGKFNLWLMECSICNEIIHPGCLKIKESEGVVNDELPNCWECPKC [M29W],-0.522 ± 0.17
11,LPHTAVRLVCGEAGKEDTVEEEEGKFNLMLMECSICNEIIHPGCLKIKESEGVVNDELPNCWECPKC [C7R],-0.908 ± 0.31
12,LPHTAVCLVCGEAGKEDTVEEEEGKFNLMLMECSICNEIIHPGCLKIKESEGVVNDEEPNCWECPKC [L58E],0.011 ± 0.13
13,EPHTAVCLVCGEAGKEDTVEEEEGKFNLMLMECSICNEIIHPGCLKIKESEGVVNDELPNCWECPKC [L1E],-0.245 ± 0.33
14,LPHTAVCLVCGEAGKEDTVEEEEGKFNLMLMECSICNEIIHPGCLKIKESEGVVNDELPNCAECPKC [W62A],-0.509 ± 0.082
15,LPHTAVCLVCGEAGKETTVEEEEGKFNLMLMECSICNEIIHPGCLKIKESEGVVNDELPNCWECPKC [D17T],-0.194 ± 0.07
16,LPHTAVCLVCGEAGKECTVEEEEGKFNLMLMECSICNEIIHPGCLKIKESEGVVNDELPNCWECPKC [D17C],0.039 ± 0.17
17,LPHTAVCLVCGEAGKEDTVEEEEGKFNLMLMKCSICNEIIHPGCLKIKESEGVVNDELPNCWECPKC [E32K],0.156 ± 0.11
18,LPHTAVCLVCGEAGKEDTVEEEEGKFNLMLMECSICNEIIHPGCLKIKEQEGVVNDELPNCWECPKC [S50Q],-0.111 ± 0.13
19,LPHTAVCLVCGEAGKEDTVEEEEGKFNLMLMECSICNEIIHPGCLKIKEREGVVNDELPNCWECPKC [S50R],-0.128 ± 0.08
20,LPHTAVCLVCGEAGKEDTVEEEEGKFNLMLMECSICNEIIHPGCLKCKESEGVVNDELPNCWECPKC [I47C],-0.168 ± 0.11

# Source: the Human Domainome abundance scans (Beltran et al. 2025)
